Test results taken from patent publication US20220323445A1, “REDUCING IMMUNOGENICITY TO PEGLOTICASE” (Horizon Therapeutics Ireland DAC, priority 2020, published 2022).

System: serum uric acid (sUA)
Assay: Serum uric acid (sUA) levels and sUA responders, open-label study of pegloticase with MTX (NCT03635957)
Assay type: in vivo, human
Procedure: The primary objective is to estimate the response rate during Month 6 (Weeks 20, 22, and 24), as measured by the sustained normalization of serum uric acid (SUA) to <6 mg/dL for at least 80% of the time during Month 6 in subjects receiving KXX with MTX.
The primary efficacy outcome endpoint is the sustained normalization of SUA to <6 mg/dL for at least 80% of the time during month 6 (weeks 20, 22, and 24) in subjects receiving KXX with MTX. This is slightly below the urate solubility threshold and this threshold has been the accepted standard for nearly all modern gout trials. Participants who achieve this endpoint were classified as “responders.” Serum uric acid (SUA) responders may also be defined as participants achieving and maintaining SUA <6 mg/dL for at least 80% of the time during Month 6 (Weeks 20, 22, and 24).
Blood samples may be collected prior to each pegloticase infusion for measurement of SUA levels using the Beckman Coulter AU System Uric Acid procedure. Participants were declared “non-responders” if there were SUA measures >6 mg/dL at 2 consecutive study visits beginning with the week 2 visit. […] If the SUA goal is not maintained before or at the 12-week mark, it was assumed that the participant had developed clinically relevant anti-pegloticase antibody and they received no further infusions. This assumption and subsequent discontinuation of pegloticase was consistent with the protocol of large phase III randomized controlled trials and the product label. A formal stopping rule was 2 occasions of SUA levels of greater than 6 mg/dL.
Clinical Chemistry—Blood samples were collected prior to each pegloticase infusion for measurement of SUA levels (primary efficacy parameter) using the Beckman Coulter AU System Uric Acid procedure. In this procedure uric acid is converted to hydrogen peroxide. Hydrogen peroxide reacts with reagent to produce a chromophore which is read bichromatically at 660/800 nm. The amount of dye formed is proportional to the uric acid concentration in the sample.
Serum samples for measurement of SUA levels were collected at the Screening Visit, the Week −4 Visit (prior to the first dose of MTX), and the Week −2 Visit during the MTX Run-in Period; within 48 hours prior to each pegloticase infusion and after the end of each pegloticase infusion prior to discharge from the site during the Pegloticase+IMM Period; at the non-infusion Week 52/End of Study/Early Termination Visits and at the Post Treatment 3 and 6 Month Follow-up Visits. Additional serum samples for SUA levels were collected at optional non-infusion (Frequent Sampling) Visits at Weeks 1 and 7. […] Subjects with SUA level >6 mg/dL at 2 consecutive visits beginning at Week 2 visit discontinued treatment, completed the End of Pegloticase Infusion Visit procedures within 2 weeks and continued the subject visits according to the protocol (without treatment).
Efficacy analyses were performed using the modified intention-to-treat (mITT) population, defined as all enrolled subjects who received ≥1 dose of pegloticase. The proportion of Month 6 responders was summarized, along with a 95% confidence interval for the proportion. The proportion of Month 3 and overall (Months 3 and 6 combined) responders was analyzed similarly.
A subject was declared a non-responder if the subject had SUA level >6 mg/dL at 2 consecutive study visits beginning with the Week 2 Visit. In addition, a subject who withdraws from study treatment for any reason after the first dose of pegloticase in the KXX+MTX Period and prior to Month 6 (for the primary endpoint) or Month 3 (for the secondary endpoint) was considered a non-responder if SUA values were not collected at the planned time points.
Patients were administered oral MTX (15 mg/week) and folate (1 mg/day) 4 weeks prior to the first pegloticase infusion (Day 1) and throughout the pegloticase treatment period. […]

[1] = Week 34 - Pre-Infusion, Month 6 sUA Responders
[2] = Week 34 - Pre-Infusion, mITT, n=10
[3] = Week 36 - Post-Infusion, Month 6 sUA Responders
[4] = Week 36 - Post-Infusion, mITT, n=6
[5] = Week 36 - Pre-Infusion, Month 6 sUA Responders
[6] = Week 36 - Pre-Infusion, mITT, n=9
[7] = Week 38 - Pre-Infusion, Month 6 sUA Responders
[8] = Week 38 - Pre-Infusion, mITT, n=5
[9] = Week 40 - Pre-Infusion, Month 6 sUA Responders
[10] = Week 40 - Pre-Infusion, mITT, n=3
[11] = Week 42 - Pre-Infusion, Month 6 sUA Responders
[12] = Week 42 - Pre-Infusion, mITT, n=3
[13] = Week 44 - Pre-Infusion, Month 6 sUA Responders
[14] = Week 44 - Pre-Infusion, mITT, n=3
[15] = Week 46 - Pre-Infusion, Month 6 sUA Responders
[16] = Week 46 - Pre-Infusion, mITT, n=2
[17] = Week 48 - Post-Infusion, Month 6 sUA Responders
[18] = Week 48 - Post-Infusion, mITT, n=3
[19] = Week 48 - Pre-Infusion, Month 6 sUA Responders
[20] = Week 48 - Pre-Infusion, mITT, n=2
[21] = Week 50 - Post-Infusion, Month 6 sUA Responders
[22] = Week 50 - Post-Infusion, mITT, n=3
[23] = Week 50 - Pre-Infusion, Month 6 sUA Responders
[24] = Week 50 - Pre-Infusion, mITT, n=2
[25] = Week 52/ET, Month 6 sUA Responders

B1: pegloticase (protein)
chain: TYKKNDEVEFVRTGYGKDMIKVLHIQRDGKYHSIKEVATTVQLTLSSKKDYLHGDNSDVIPTDTIKNTVNVLAKFKGIKSIETFAVTICEHFLSSFKHVIRAQVYVEEVPWKRFEKNGVKHVHAFIYTPTGTHFCEVEQIRNGPPVIHSGIKDLKVLKTTQSGFEGFIKDQFTTLPEVKDRCFATQVYCKWRYHQGRDVDFEATWDTVRSIVLQKFAGPYDKGEYSPSVQKTLYDIQVLTLGQVPEIEDMEISLPNIHYLNIDMSKMGLINKEEVLLPLDNPYGKITGTVKRKLSSRL
modifications: monomethoxy PEG conjugated; Krystexxa Sequence
notes: covalent conjugate of uricase produced by a genetically modified strain of Escherichia coli and monomethoxypoly (ethylene glycol)
[1]
  sUA < 6 mg/dL, %: (100%)
  sUA Change from Baseline, Mean: -8.47 mg/dL
  sUA Change from Baseline, Median: -7.95 mg/dL
  sUA Observed, Mean: 0.82 mg/dL
  sUA Observed, Median: 0.30 mg/dL
[2]
  sUA < 6 mg/dL, n (%): 10 (100%)
  sUA Change from Baseline, Mean (SD): −8.47 (3.248) mg/dL
  sUA Change from Baseline, Median: -7.95 mg/dL
  sUA Observed, Mean (SD): 0.82 (1.046) mg/dL
  sUA Observed, Median: 0.30 mg/dL
[3]
  sUA < 6 mg/dL, %: (100%)
  sUA Change from Baseline, Mean: -9.38 mg/dL
  sUA Change from Baseline, Median: -9.20 mg/dL
  sUA Observed, Mean: 0.30 mg/dL
  sUA Observed, Median: 0.30 mg/dL
[4]
  sUA < 6 mg/dL, n (%): 6 (100%)
  sUA Change from Baseline, Mean (SD): −9.38 (3.799) mg/dL
  sUA Change from Baseline, Median: -9.20 mg/dL
  sUA Observed, Mean (SD): 0.30 (0.000) mg/dL
  sUA Observed, Median: 0.30 mg/dL
[5]
  sUA < 6 mg/dL, %: ( 88.9%)
  sUA Change from Baseline, Mean: -7.90 mg/dL
  sUA Change from Baseline, Median: -8.60 mg/dL
  sUA Observed, Mean: 1.58 mg/dL
  sUA Observed, Median: 0.30 mg/dL
[6]
  sUA < 6 mg/dL, n (%): 8 (88.9%)
  sUA Change from Baseline, Mean (SD): −7.90 (4.094) mg/dL
  sUA Change from Baseline, Median: -8.60 mg/dL
  sUA Observed, Mean (SD): 1.58 (2.425) mg/dL
  sUA Observed, Median: 0.30 mg/dL
[7]
  sUA < 6 mg/dL, %: (100%)
  sUA Change from Baseline, Mean: -8.41 mg/dL
  sUA Change from Baseline, Median: -8.60 mg/dL
  sUA Observed, Mean: 0.93 mg/dL
  sUA Observed, Median: 0.30 mg/dL
[8]
  sUA < 6 mg/dL, n (%): 5 (100%)
  sUA Change from Baseline, Mean (SD): −8.41 (5.229) mg/dL
  sUA Change from Baseline, Median: -8.60 mg/dL
  sUA Observed, Mean (SD): 0.93 (1.583) mg/dL
  sUA Observed, Median: 0.30 mg/dL
[9]
  sUA < 6 mg/dL, %: (100%)
  sUA Change from Baseline, Mean: -11.30 mg/dL
  sUA Change from Baseline, Median: -9.80 mg/dL
  sUA Observed, Mean: 0.30 mg/dL
  sUA Observed, Median: 0.30 mg/dL
[10]
  sUA < 6 mg/dL, n (%): 3 (100%)
  sUA Change from Baseline, Mean (SD): −11.30 (3.686) mg/dL
  sUA Change from Baseline, Median: -9.80 mg/dL
  sUA Observed, Mean (SD): 0.30 (0.000) mg/dL
  sUA Observed, Median: 0.30 mg/dL
[11]
  sUA < 6 mg/dL, %: (100%)
  sUA Change from Baseline, Mean: -11.30 mg/dL
  sUA Change from Baseline, Median: -9.80 mg/dL
  sUA Observed, Mean: 0.30 mg/dL
  sUA Observed, Median: 0.30 mg/dL
[12]
  sUA < 6 mg/dL, n (%): 3 (100%)
  sUA Change from Baseline, Mean (SD): −11.30 (3.686) mg/dL
  sUA Change from Baseline, Median: -9.80 mg/dL
  sUA Observed, Mean (SD): 0.30 (0.000) mg/dL
  sUA Observed, Median: 0.30 mg/dL
[13]
  sUA < 6 mg/dL, %: (100%)
  sUA Change from Baseline, Mean: -10.55 mg/dL
  sUA Change from Baseline, Median: -9.80 mg/dL
  sUA Observed, Mean: 1.05 mg/dL
  sUA Observed, Median: 0.30 mg/dL
[14]
  sUA < 6 mg/dL, n (%): 3 (100%)
  sUA Change from Baseline, Mean (SD): −10.55 (4.625) mg/dL
  sUA Change from Baseline, Median: -9.80 mg/dL
  sUA Observed, Mean (SD): 1.05 (1.305) mg/dL
  sUA Observed, Median: 0.30 mg/dL
[15]
  sUA < 6 mg/dL, %: (100%)
  sUA Change from Baseline, Mean: -12.65 mg/dL
  sUA Change from Baseline, Median: -12.65 mg/dL
  sUA Observed, Mean: 0.30 mg/dL
  sUA Observed, Median: 0.30 mg/dL
[16]
  sUA < 6 mg/dL, n (%): 2 (100%)
  sUA Change from Baseline, Mean (SD): −12.65 (4.031) mg/dL
  sUA Change from Baseline, Median: -12.65 mg/dL
  sUA Observed, Mean (SD): 0.30 (0.000) mg/dL
  sUA Observed, Median: 0.30 mg/dL
[17]
  sUA < 6 mg/dL, %: (100%)
  sUA Change from Baseline, Mean: -10.33 mg/dL
  sUA Change from Baseline, Median: -9.80 mg/dL
  sUA Observed, Mean: 1.60 mg/dL
  sUA Observed, Median: 0.30 mg/dL
[18]
  sUA < 6 mg/dL, n (%): 3 (100%)
  sUA Change from Baseline, Mean (SD): −10.33 (4.922) mg/dL
  sUA Change from Baseline, Median: -9.80 mg/dL
  sUA Observed, Mean (SD): 1.60 (2.252) mg/dL
  sUA Observed, Median: 0.30 mg/dL
[19]
  sUA < 6 mg/dL, %: (100%)
  sUA Change from Baseline, Mean: -12.65 mg/dL
  sUA Change from Baseline, Median: -12.65 mg/dL
  sUA Observed, Mean: 0.30 mg/dL
  sUA Observed, Median: 0.30 mg/dL
[20]
  sUA < 6 mg/dL, n (%): 2 (100%)
  sUA Change from Baseline, Mean (SD): −12.65 (4.031) mg/dL
  sUA Change from Baseline, Median: -12.65 mg/dL
  sUA Observed, Mean (SD): 0.30 (0.000) mg/dL
  sUA Observed, Median: 0.30 mg/dL
[21]
  sUA < 6 mg/dL, %: (100%)
  sUA Change from Baseline, Mean: -10.57 mg/dL
  sUA Change from Baseline, Median: -9.80 mg/dL
  sUA Observed, Mean: 1.37 mg/dL
  sUA Observed, Median: 0.30 mg/dL
[22]
  sUA < 6 mg/dL, n (%): 3 (100%)
  sUA Change from Baseline, Mean (SD): −10.57 (4.598) mg/dL
  sUA Change from Baseline, Median: -9.80 mg/dL
  sUA Observed, Mean (SD): 1.37 (1.848) mg/dL
  sUA Observed, Median: 0.30 mg/dL
[23]
  sUA < 6 mg/dL, %: (100%)
  sUA Change from Baseline, Mean: -12.65 mg/dL
  sUA Change from Baseline, Median: -12.65 mg/dL
  sUA Observed, Mean: 0.30 mg/dL
  sUA Observed, Median: 0.30 mg/dL
[24]
  sUA < 6 mg/dL, n (%): 2 (100%)
  sUA Change from Baseline, Mean (SD): −12.65 (4.031) mg/dL
  sUA Change from Baseline, Median: -12.65 mg/dL
  sUA Observed, Mean (SD): 0.30 (0.000) mg/dL
  sUA Observed, Median: 0.30 mg/dL
[25]
  sUA < 6 mg/dL, %: (100%)
  sUA Change from Baseline, Mean: -12.65 mg/dL
  sUA Change from Baseline, Median: -12.65 mg/dL
  sUA Observed, Mean: 0.30 mg/dL
  sUA Observed, Median: 0.30 mg/dL
Week 52/ET, mITT, n=2
  sUA < 6 mg/dL, n (%): 2 (100%)
  sUA Change from Baseline, Mean (SD): −12.65 (4.031) mg/dL
  sUA Change from Baseline, Median: -12.65 mg/dL
  sUA Observed, Mean (SD): 0.30 (0.000) mg/dL
  sUA Observed, Median: 0.30 mg/dL
